# Source: the supplement of paper PMC9112550, “Optimization of the antimicrobial peptide Bac7 by deep mutational scanning” (BMC Biology, 2022)
# Tested on: Escherichia coli TOP10
# Assay: shrunken log2 fold change of peptide-encoding DNA abundance (4.5 h post-induction vs induction); higher = less antimicrobial activity (less host growth inhibition)
# Details: time post-induction: 4.5 h; library: site-saturation at positions 5, 18, 19, 20
# 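Note: peptides expressed intracellularly from a pBAD plasmid library in pooled LB shake-flask culture, induced with 0.3% L-arabinose, DNA abundance read by NGS, three biological replicates, DESeq2 with apeglm shrinkage.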
row,Sequence,shrunken log2 fold change
1,RRIRQRPPRLPRPRPRPTFNPRP,-0.201
2,RRIRVRPPRLPRPRPRPWFQPRP,-0.139
3,RRIRTRPPRLPRPRPRPVDYPRP,-0.172
4,RRIRIRPPRLPRPRPRPCFRPRP,-0.233
5,RRIRSRPPRLPRPRPRPHRWPRP,0.0724
6,RRIRWRPPRLPRPRPRPNSIPRP,-0.396
7,RRIRTRPPRLPRPRPRPTWTPRP,-0.136
8,RRIRERPPRLPRPRPRPPFRPRP,0.173
9,RRIRWRPPRLPRPRPRPISFPRP,0.00901
10,RRIRMRPPRLPRPRPRPQQLPRP,-0.0103
11,RRIRRRPPRLPRPRPRPQHGPRP,0.198
12,RRIRKRPPRLPRPRPRPNKYPRP,-0.168
13,RRIRRRPPRLPRPRPRPMHNPRP,0.384
14,RRIRKRPPRLPRPRPRPFVYPRP,-0.014
15,RRIRTRPPRLPRPRPRPSQRPRP,0.0168
16,RRIRYRPPRLPRPRPRPWYRPRP,0.729
17,RRIRCRPPRLPRPRPRPDHWPRP,-0.109
18,RRIRQRPPRLPRPRPRPMQWPRP,0.0039
19,RRIRCRPPRLPRPRPRPFQCPRP,-0.296
20,RRIRIRPPRLPRPRPRPMDWPRP,0.0118
21,RRIRLRPPRLPRPRPRPIVNPRP,-0.803
22,RRIRCRPPRLPRPRPRPCNIPRP,-0.3
23,RRIRCRPPRLPRPRPRPWREPRP,0.13

row,Sequence,shrunken log2 fold change
1,RRIRKRPPRLPRPRPRPFSVPRP,0.034
2,RRIRSRPPRLPRPRPRPVWSPRP,0.0126
3,RRIRYRPPRLPRPRPRPAYTPRP,-0.222
4,RRIRYRPPRLPRPRPRPDHLPRP,-0.00968
5,RRIRHRPPRLPRPRPRPRVQPRP,0.054
6,RRIRQRPPRLPRPRPRPKYLPRP,-0.0386
7,RRIRERPPRLPRPRPRPPQIPRP,0.15
8,RRIRPRPPRLPRPRPRPSEIPRP,-0.261
9,RRIRNRPPRLPRPRPRPWVVPRP,0.0152
10,RRIRRRPPRLPRPRPRPGYLPRP,-0.12
11,RRIRIRPPRLPRPRPRPFTGPRP,-1.27
12,RRIRCRPPRLPRPRPRPDMQPRP,-0.672
13,RRIRLRPPRLPRPRPRPVTHPRP,-0.305
14,RRIRGRPPRLPRPRPRPIIKPRP,0.237
15,RRIRGRPPRLPRPRPRPRLEPRP,1.16
16,RRIRVRPPRLPRPRPRPGRCPRP,0.627
17,RRIRKRPPRLPRPRPRPQAIPRP,-0.0244
18,RRIRMRPPRLPRPRPRPTCTPRP,0.963
19,RRIRTRPPRLPRPRPRPEVGPRP,0.0668
20,RRIRHRPPRLPRPRPRPLRKPRP,0.0993
21,RRIRSRPPRLPRPRPRPTLGPRP,0.378
22,RRIRIRPPRLPRPRPRPMHNPRP,-0.332
23,RRIRSRPPRLPRPRPRPQGQPRP,-0.154

row,Sequence,shrunken log2 fold change
1,RRIRIRPPRLPRPRPRPDQVPRP,-0.117
2,RRIRGRPPRLPRPRPRPDRYPRP,0.152
3,RRIRKRPPRLPRPRPRPWLEPRP,-0.00226
4,RRIRIRPPRLPRPRPRPNYNPRP,-1.12
5,RRIRIRPPRLPRPRPRPDWIPRP,-1.16
6,RRIRYRPPRLPRPRPRPQSSPRP,-0.687
7,RRIRGRPPRLPRPRPRPWSTPRP,0.243
8,RRIRERPPRLPRPRPRPSAQPRP,-0.167
9,RRIRFRPPRLPRPRPRPGKQPRP,0.0463
10,RRIRCRPPRLPRPRPRPKEIPRP,0.0368
11,RRIRVRPPRLPRPRPRPVDCPRP,0.014
12,RRIRLRPPRLPRPRPRPMAHPRP,-0.944
13,RRIRMRPPRLPRPRPRPPSAPRP,1.2
14,RRIRVRPPRLPRPRPRPFIFPRP,-0.177
15,RRIRWRPPRLPRPRPRPQQFPRP,-0.262
16,RRIRDRPPRLPRPRPRPYEGPRP,0.00106
17,RRIRKRPPRLPRPRPRPDVPPRP,0.501
18,RRIRHRPPRLPRPRPRPDWRPRP,0.147
19,RRIRKRPPRLPRPRPRPKADPRP,0.018
20,RRIRIRPPRLPRPRPRPITSPRP,-1.46
21,RRIRRRPPRLPRPRPRPMDYPRP,0.0716
22,RRIRFRPPRLPRPRPRPFTPPRP,-0.358
23,RRIRNRPPRLPRPRPRPQDKPRP,0.0859

row,Sequence,shrunken log2 fold change
1,RRIRNRPPRLPRPRPRPLHNPRP,-0.503
2,RRIRPRPPRLPRPRPRPHARPRP,0.111
3,RRIRERPPRLPRPRPRPHPRPRP,0.278
4,RRIRMRPPRLPRPRPRPLKTPRP,0.642
5,RRIRNRPPRLPRPRPRPVAAPRP,0.359
6,RRIRVRPPRLPRPRPRPVIGPRP,0.183
7,RRIRTRPPRLPRPRPRPKFGPRP,-0.00436
8,RRIRLRPPRLPRPRPRPDKDPRP,0.0388
9,RRIRTRPPRLPRPRPRPIFYPRP,-0.315
10,RRIRHRPPRLPRPRPRPGCVPRP,0.000164
11,RRIRKRPPRLPRPRPRPMIKPRP,-0.0199
12,RRIRPRPPRLPRPRPRPFCQPRP,-0.257
13,RRIRARPPRLPRPRPRPPSLPRP,0.513
14,RRIRSRPPRLPRPRPRPGVTPRP,0.0674
15,RRIRSRPPRLPRPRPRPTDYPRP,-0.66
16,RRIRARPPRLPRPRPRPNCCPRP,0.131
17,RRIRFRPPRLPRPRPRPLRCPRP,0.0723
18,RRIRPRPPRLPRPRPRPAMTPRP,-0.085
19,RRIRARPPRLPRPRPRPQVCPRP,0.0435
20,RRIRYRPPRLPRPRPRPEAPPRP,-0.0405
21,RRIRGRPPRLPRPRPRPQFLPRP,-0.0259
22,RRIRERPPRLPRPRPRPKFTPRP,-0.147
